Results published in the supplement of paper PMC12855868.

B1: library; numbered along this chain (parent)
chain: MAAAGGARLLRAASAVLGGPAGRWLHHAGSRAGSSGLLRNRGPGGSAEASRSLSVSARARSSSEDKITVHFINRDGETLTTKGKVGDSLLDVVVENNLDIDGFGACEGTLACSTCHLIFEDHIYEKLDAITDEENDMLDLAYGLTDRSRLGCQICLTKSMDNMTVRVPETVADARQSIDVGKTS

Variants of: B1
Assay: scaled log2 fold change in cell abundance, elesclomol vs control (0 = silent mean, 1 = nonsense mean) (scaled log2 ratio); higher = higher viability under elesclomol (loss of FDX1 cuproptosis function)
Settings: glucose 10 mM
[1] = with ABC1 FDX1 KO, elesclomol 5 nM, 14 days
[2] = with HEK293T FDX1 KO, elesclomol 40 nM, 11 days
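Also: variant abundance is its share of total variant reads in each endpoint sample, from next-generation sequencing of the integrated ORF PCR-amplified out of genomic DNA.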

Variant | scaled log2 fold change [1] | scaled log2 fold change [2]
T80C | 0.0285 | -0.291
T80W | 0.177 | 0.805
T80G | 0.0761 | -0.279
T80P | 0.231 | -0.0181
T80A | -0.231 | –
T80S | -0.407 | –
T80D | -0.0431 | -0.13
T80F | 0.473 | -0.712
T80N | 0.128 | –
T80Q | -0.0848 | 0.379
T80R | -0.0268 | -0.512
T80I | 0.231 | 0.056
T80M | 0.0647 | –
T80K | 0.183 | -0.131
T80L | -0.289 | -0.147
T80Y | 0.26 | -0.203
T80V | 0.126 | -0.0679
T81H | 0.282 | -0.297
T81L | 0.127 | 0.885
T81Q | -0.159 | -0.00467
T81W | -0.0129 | -0.543
T81V | 0.0264 | -0.0523
T81I | 0.266 | 0.81
T81C | 0.0149 | -0.28

Variant | scaled log2 fold change [1] | scaled log2 fold change [2]
T81R | 0.181 | 0.0327
T81K | 0.0566 | 0.178
T81N | 0.308 | 0.885
T81P | 0.103 | 1.32
T81A | 0.0513 | 1.11
T81S | -0.82 | 1.14
T81G | 0.204 | -1.09
T81M | -0.27 | 0.26
T81E | 0.273 | 0.0361
T81D | -0.11 | -0.616
T81Y | -0.015 | -0.0662
T81F | 0.141 | –
I72F | -0.0218 | -0.0982
I72Q | -0.00335 | 0.0078
I72G | -0.24 | -0.556
I72S | -0.00568 | 0.815
I72V | -0.116 | -1.01
I72K | 0.155 | -0.273
I72W | 0.00502 | 1.02
I72M | -0.0135 | 0.0709
I72D | 0.34 | -0.132
I72L | -0.315 | -0.275
I72E | -0.111 | -0.295
I72P | 0.991 | 1.28

Variant | scaled log2 fold change [1] | scaled log2 fold change [2]
I72A | 0.0764 | -0.682
I72N | 0.0538 | -0.293
I72H | 0.00982 | -0.581
I72C | 0.238 | -0.937
I72Y | -1.04 | -0.583
I72R | -0.783 | 0.539
I72T | -0.0209 | -0.405
F71W | 0.102 | -0.726
F71V | 0.271 | -0.215
F71S | 0.983 | 1.08
F71Q | 1.3 | 0.999
F71R | 1.04 | 1.38
F71T | 0.523 | 0.991
F71Y | 0.112 | -0.0161
L79A | 0.253 | 0.232
L79W | -0.0916 | 0.138
L79H | -0.594 | 0.119
L79S | 0.0141 | –
L79I | -0.0225 | -0.761
L79K | 0.0188 | 0.977
L79M | -0.15 | -0.649
L79F | 0.0893 | -0.166
L79C | 0.0853 | -0.242
L79Y | -0.343 | 0.278

Variant | scaled log2 fold change [1] | scaled log2 fold change [2]
L79Q | -0.224 | -0.128
L79R | -0.538 | -0.117
L79D | 0.287 | -0.0667
L79P | 0.634 | 0.299
L79G | 0.145 | 1.18
L79V | 0.047 | 1.39
L79T | -0.0538 | –
L79N | 0.26 | 0.247
L79E | 0.0989 | -0.00345
K82F | -0.531 | -0.243
K82E | 0.0245 | -0.309
K82H | -0.223 | -0.0273
K82V | -0.0519 | 0.989
K82T | -0.0344 | 0.0849
K82D | -0.58 | -0.293
K82A | 0.109 | –
K82R | -0.619 | -0.611
K82M | 0.172 | –
K82S | -0.449 | –
K82N | -0.873 | 0.352
K82Q | -0.471 | –
K82P | -0.285 | -0.31
K82L | 0.0365 | -0.76
K82C | 0.296 | 0.165

Variant | scaled log2 fold change [1] | scaled log2 fold change [2]
K82I | 0.215 | 0.419
K82W | 0.0928 | -0.0187
K82G | -0.688 | -0.137
K82Y | -0.328 | -0.154
E77D | -0.61 | -0.9
E77L | 0.262 | 0.144
E77A | 0.306 | 1.06
E77K | 0.242 | -0.341
E77P | 0.108 | –
E77V | -0.145 | -0.226
E77C | -0.00193 | -0.0101
E77H | -0.0496 | -0.0091
E77I | -0.922 | -0.714
E77G | 0.311 | -0.306
E77Q | -0.0695 | 0.00586
E77N | 0.0389 | -0.504
E77T | -1.24 | -0.154
E77R | -0.178 | -0.307
E77Y | 0.514 | -0.542
E77M | -0.575 | -0.139
E77F | -0.642 | 0.94
E77W | 0.139 | 0.815
E77S | -0.974 | 0.00555
